“Also recorded” adds a separate entry of the source.
Columns and labels:
[1] = molecular target: His-tagged pantothenate synthetase with a C-terminal extension (PS-[LCGR]), expressed from pCA24N(-GFP) (E. coli); test: ITC
[2] = molecular target: His-tagged YfcD (putative Nudix hydrolase) expressed from pCA24N(-GFP) (E. coli); test: ITC
[3] = molecular target: His-tagged YfcD (putative Nudix hydrolase) expressed from pCA24N(-GFP); test: fluorescence polarisation

With “His-tagged YfcD (putative Nudix hydrolase) expressed from pCA24N(-GFP) (natural protein)” the Kd [1] was 30 µM.

For “His-tagged pantothenate synthetase expressed from pET28a (from UniProt P31663 1-283) (enzyme)”, the Kd [2] was 2.11 µM.

B1: FITC-labelled His-tagged pantothenate synthetase (pET28a), labelled by sortase on the N-terminal glycine (protein)
chain: MLIIETLPLLRQQIRRLRMEGKRVALVPTMGNLHDGHMKLVDEAKARADVVVVSIFVNPMQFDRPEDLARYPRTLQEDCEKLNKRKVDLVFAPSVKEIYPNGTETHTYVDVPGLSTMLEGASRPGHFRGVSTIVSKLFNLVQPDIACFGEKDFQQLALIRKMVADMGFDIEIVGVPIMRAKDGLALSSRNGYLTAEQRKIAPGLYKVLSSIADKLQAGERDLDEIITIAGQELNEKGFRADDIQIRDADTLLEVSETSKRAVILVAAWLGDARLIDNKMVELA
For B1, the K0.5 [3] was “K0.5 = 1.87 ± 0.08 μM; also recorded: K0.5 2.16 ± 0.11 μM”.
